Source: PMC6555819, “Comprehensive study of nuclear receptor DNA binding provides a revised framework for understanding receptor specificity”

Target: FXR:RXRa (Homo sapiens, UniProt Q96RI1;P19793 full;full)
Experiment: no ligand; PBM; 270 nM : 90 nM RXRa; PBS pH 7.4, 2% milk, 0.02% Triton X-100, 1 mM DTT, BSA, 0.4 mg/ml salmon testes DNA
Conditions: tags: His kept;His cleaved; copies: 1;1; label: surface-attached array probe
Outline: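 For binding z-scores, the reference was random background probes on custom Agilent 4×180K protein-binding microarrays. These arrays were incubated 1 h with ligand-free nuclear receptor dimers in PBS pH 7.4, 2% milk, 0.02% Triton X-100, 1 mM DTT, 0.2 mg/mL BSA and 0.4 mg/ml salmon testes DNA. Fluorescence was scanned after antibody detection of each partner (one per run) and regression-normalized.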

Sequence of FXR:RXRa (Q96RI1 whole entry, chain 1 of 2): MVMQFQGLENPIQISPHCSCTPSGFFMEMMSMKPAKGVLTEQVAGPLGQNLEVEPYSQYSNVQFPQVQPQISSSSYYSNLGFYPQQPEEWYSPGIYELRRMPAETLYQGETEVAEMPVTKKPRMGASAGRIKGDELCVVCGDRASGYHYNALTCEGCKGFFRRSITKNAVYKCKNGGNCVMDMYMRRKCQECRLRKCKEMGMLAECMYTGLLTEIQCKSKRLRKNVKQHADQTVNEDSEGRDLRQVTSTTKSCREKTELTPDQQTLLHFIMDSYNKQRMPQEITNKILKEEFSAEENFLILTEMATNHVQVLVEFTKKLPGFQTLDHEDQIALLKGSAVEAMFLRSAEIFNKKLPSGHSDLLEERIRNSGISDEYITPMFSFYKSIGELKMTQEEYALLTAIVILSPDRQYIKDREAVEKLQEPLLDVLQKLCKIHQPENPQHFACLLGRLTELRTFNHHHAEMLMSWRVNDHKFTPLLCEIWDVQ
Sequence of FXR:RXRa (P19793 whole entry, chain 2 of 2): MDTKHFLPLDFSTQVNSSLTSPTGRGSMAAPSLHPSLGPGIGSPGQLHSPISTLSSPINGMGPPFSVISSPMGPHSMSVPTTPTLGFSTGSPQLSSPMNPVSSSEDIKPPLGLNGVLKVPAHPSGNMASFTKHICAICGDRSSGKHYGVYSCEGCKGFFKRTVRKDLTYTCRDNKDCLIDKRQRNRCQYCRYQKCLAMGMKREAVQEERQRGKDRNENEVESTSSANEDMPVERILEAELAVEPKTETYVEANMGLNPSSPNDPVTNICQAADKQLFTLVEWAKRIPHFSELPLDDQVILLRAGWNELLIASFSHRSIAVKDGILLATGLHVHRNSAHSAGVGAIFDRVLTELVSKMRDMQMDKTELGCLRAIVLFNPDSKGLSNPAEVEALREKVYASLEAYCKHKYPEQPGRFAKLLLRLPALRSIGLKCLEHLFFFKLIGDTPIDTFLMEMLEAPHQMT

Binder | binding signal
NRC3_wobSeed20_DR0_T13C_o1 (dsDNA) DNA 1: GCAGAATGAGGTCAAGATCAGGGAAACAGAATACATGCGATTGACAGCGTAGAATGAAGG DNA 2: CCTTCATTCTACGCTGTCAATCGCATGTATTCTGTTTCCCTGATCTTGACCTCATTCTGC | 7.87 PBM z-score against 500 random probes
NRC3_wobSeed135_DR5_T8G_o1 (dsDNA) DNA 1: GCCGAACGAGGTCATTGACAGGACAGTGAATAGTAAGCGATTGACAGCGTAGAATGAAGG DNA 2: CCTTCATTCTACGCTGTCAATCGCTTACTATTCACTGTCCTGTCAATGACCTCGTTCGGC | 7.83 PBM z-score against 500 random probes
NRC3_wobSeed18_DR0_C18T_o1 (dsDNA) DNA 1: GCGATACAGGGTCAAGGTCAGAGTACGCGTATTGATGCGATTGACAGCGTAGAATGAAGG DNA 2: CCTTCATTCTACGCTGTCAATCGCATCAATACGCGTACTCTGACCTTGACCCTGTATCGC | 7.81 PBM z-score against 500 random probes
NRC3_wobSeed114_DR4_T5A_o1 (dsDNA) DNA 1: GCAAAACAGGGTCATCGTAGGCCAGAGTACGCACAGGCGATTGACAGCGTAGAATGAAGG DNA 2: CCTTCATTCTACGCTGTCAATCGCCTGTGCGTACTCTGGCCTACGATGACCCTGTTTTGC | 7.8 PBM z-score against 500 random probes
NRC3_wobSeed14_DR0_T8G_o1 (dsDNA) DNA 1: GCCCTGCGAGGTCATGGTCAGCTAATCTACAGTATGGCGATTGACAGCGTAGAATGAAGG DNA 2: CCTTCATTCTACGCTGTCAATCGCCATACTGTAGATTAGCTGACCATGACCTCGCAGGGC | 7.8 PBM z-score against 500 random probes
NRC3_wobSeed114_DR4_C7A_o1 (dsDNA) DNA 1: GCAATAAAGGGTCATCGTAGGCCAGAGTACGCACAGGCGATTGACAGCGTAGAATGAAGG DNA 2: CCTTCATTCTACGCTGTCAATCGCCTGTGCGTACTCTGGCCTACGATGACCCTTTATTGC | 7.8 PBM z-score against 500 random probes
NRC3_wobSeed135_DR5_T8A_o1 (dsDNA) DNA 1: GCCGAACAAGGTCATTGACAGGACAGTGAATAGTAAGCGATTGACAGCGTAGAATGAAGG DNA 2: CCTTCATTCTACGCTGTCAATCGCTTACTATTCACTGTCCTGTCAATGACCTTGTTCGGC | 7.74 PBM z-score against 500 random probes
NRC3_wobSeed63_DR2_T8A_o1 (dsDNA) DNA 1: GCCGAACAAGGTCACCAGGACAGTGAAGAGGTTGGAGCGATTGACAGCGTAGAATGAAGG DNA 2: CCTTCATTCTACGCTGTCAATCGCTCCAACCTCTTCACTGTCCTGGTGACCTTGTTCGGC | 7.74 PBM z-score against 500 random probes
NRC3_wobSeed114_DR4_G20C_o1 (dsDNA) DNA 1: GCAATACAGGGTCATCGTACGCCAGAGTACGCACAGGCGATTGACAGCGTAGAATGAAGG DNA 2: CCTTCATTCTACGCTGTCAATCGCCTGTGCGTACTCTGGCGTACGATGACCCTGTATTGC | 7.71 PBM z-score against 500 random probes
NRC3_wobSeed42_DR1_C7A_o1 (dsDNA) DNA 1: GCTATAAAGGGTCAAAGGCCAGAGTACGAATGTCGAGCGATTGACAGCGTAGAATGAAGG DNA 2: CCTTCATTCTACGCTGTCAATCGCTCGACATTCGTACTCTGGCCTTTGACCCTTTATAGC | 7.71 PBM z-score against 500 random probes
NRC3_wobSeed92_DR3_T13C_o1 (dsDNA) DNA 1: GCAGAATGAGGTCATTAAGATCAGGGAATTGCGGTCGCGATTGACAGCGTAGAATGAAGG DNA 2: CCTTCATTCTACGCTGTCAATCGCGACCGCAATTCCCTGATCTTAATGACCTCATTCTGC | 7.7 PBM z-score against 500 random probes
NRC3_wobSeed39_DR1_G22T_o1 (dsDNA) DNA 1: GCCGAACTAGGTCAAAGGACATTGAAAGGCGACGTAGCGATTGACAGCGTAGAATGAAGG DNA 2: CCTTCATTCTACGCTGTCAATCGCTACGTCGCCTTTCAATGTCCTTTGACCTAGTTCGGC | 4.46 PBM z-score against 500 random probes
NRC3_wobSeed134_DR5_G26C_o1 (dsDNA) DNA 1: GCGCTGCTAGGTCAACTGATGGTCACCTAAAGCTCGGCGATTGACAGCGTAGAATGAAGG DNA 2: CCTTCATTCTACGCTGTCAATCGCCGAGCTTTAGGTGACCATCAGTTGACCTAGCAGCGC | 4.42 PBM z-score against 500 random probes
NRC3_wobSeed27_DR1_T5G_o1 (dsDNA) DNA 1: GCACGCGGAGGACAAAGGTCAGAGCTACGCCAGTGAGCGATTGACAGCGTAGAATGAAGG DNA 2: CCTTCATTCTACGCTGTCAATCGCTCACTGGCGTAGCTCTGACCTTTGTCCTCCGCGTGC | 4.39 PBM z-score against 500 random probes
NRC3_wobSeed88_DR3_C21A_o1 (dsDNA) DNA 1: GCTAGCCTAGGTCATGCGGGACAGTATAGTGTCGGCGCGATTGACAGCGTAGAATGAAGG DNA 2: CCTTCATTCTACGCTGTCAATCGCGCCGACACTATACTGTCCCGCATGACCTAGGCTAGC | 4.37 PBM z-score against 500 random probes
NRC3_wobSeed87_DR3_A5C_o1 (dsDNA) DNA 1: GCCGCACTAGGTCATCCAGGACAGTGAATACATTGAGCGATTGACAGCGTAGAATGAAGG DNA 2: CCTTCATTCTACGCTGTCAATCGCTCAATGTATTCACTGTCCTGGATGACCTAGTGCGGC | 4.33 PBM z-score against 500 random probes
NRC3_wobSeed10_DR0_T4G_o1 (dsDNA) DNA 1: GCAGCGAAAGGTCGAGGTGAGTATAGAGAAAGGGAAGCGATTGACAGCGTAGAATGAAGG DNA 2: CCTTCATTCTACGCTGTCAATCGCTTCCCTTTCTCTATACTCACCTCGACCTTTCGCTGC | 4.31 PBM z-score against 500 random probes

Binder | binding signal
NRC3_wobSeed141_DR5_A29T_o1 (dsDNA) DNA 1: GCAGTCAAAGTTCAGGACGAGGTAACGTTAAGCACGGCGATTGACAGCGTAGAATGAAGG DNA 2: CCTTCATTCTACGCTGTCAATCGCCGTGCTTAACGTTACCTCGTCCTGAACTTTGACTGC | 4.29 PBM z-score against 500 random probes
NRC3_wobSeed138_DR5_G19C_o1 (dsDNA) DNA 1: GCGATACAGGGTCAGCTACAGGCCAGAGTATGGAAAGCGATTGACAGCGTAGAATGAAGG DNA 2: CCTTCATTCTACGCTGTCAATCGCTTTCCATACTCTGGCCTGTAGCTGACCCTGTATCGC | 4.25 PBM z-score against 500 random probes
NRC3_wobSeed34_DR1_T4A_o1 (dsDNA) DNA 1: GCAACGAAAGGTCGAAGGTGAGTATACCCACCCGAAGCGATTGACAGCGTAGAATGAAGG DNA 2: CCTTCATTCTACGCTGTCAATCGCTTCGGGTGGGTATACTCACCTTCGACCTTTCGTTGC | 4.23 PBM z-score against 500 random probes
NRC3_wobSeed34_DR1_A21C_o1 (dsDNA) DNA 1: GCATCGAAAGGTCGAAGGTGCGTATACCCACCCGAAGCGATTGACAGCGTAGAATGAAGG DNA 2: CCTTCATTCTACGCTGTCAATCGCTTCGGGTGGGTATACGCACCTTCGACCTTTCGATGC | 4.14 PBM z-score against 500 random probes
NRC3_wobSeed13_DR0_C13T_o1 (dsDNA) DNA 1: GCCGTCCAAGGTTAAGGTCAGTGAAAGAGACTCGAAGCGATTGACAGCGTAGAATGAAGG DNA 2: CCTTCATTCTACGCTGTCAATCGCTTCGAGTCTCTTTCACTGACCTTAACCTTGGACGGC | 4.12 PBM z-score against 500 random probes
NRC3_wobSeed136_DR5_T16A_o1 (dsDNA) DNA 1: GCTAGCCTAGGTCATACAGGGGCCAGTATAGAAAGCGCGATTGACAGCGTAGAATGAAGG DNA 2: CCTTCATTCTACGCTGTCAATCGCGCTTTCTATACTGGCCCCTGTATGACCTAGGCTAGC | 4.09 PBM z-score against 500 random probes
NRC3_wobSeed113_DR4_G29C_o1 (dsDNA) DNA 1: GCATATGTAGGTTAGCTGGGGTCATTCACACTAGGCGCGATTGACAGCGTAGAATGAAGG DNA 2: CCTTCATTCTACGCTGTCAATCGCGCCTAGTGTGAATGACCCCAGCTAACCTACATATGC | 4.06 PBM z-score against 500 random probes
NRC3_wobSeed135_DR5_A29G_o1 (dsDNA) DNA 1: GCCGAACTAGGTCATTGACAGGACAGTGGATAGTAAGCGATTGACAGCGTAGAATGAAGG DNA 2: CCTTCATTCTACGCTGTCAATCGCTTACTATCCACTGTCCTGTCAATGACCTAGTTCGGC | 4.02 PBM z-score against 500 random probes
NRC3_wobSeed76_DR3_G9C_o1 (dsDNA) DNA 1: GCCCTACTCGGCCAAAAAGGTCATTGATGCCGATAAGCGATTGACAGCGTAGAATGAAGG DNA 2: CCTTCATTCTACGCTGTCAATCGCTTATCGGCATCAATGACCTTTTTGGCCGAGTAGGGC | 3.98 PBM z-score against 500 random probes
NRC3_wobSeed112_DR4_G15C_o1 (dsDNA) DNA 1: GCTAGCCTAGGTCACATCGGGCCAGTATACGCTATAGCGATTGACAGCGTAGAATGAAGG DNA 2: CCTTCATTCTACGCTGTCAATCGCTATAGCGTATACTGGCCCGATGTGACCTAGGCTAGC | 3.96 PBM z-score against 500 random probes
NRC3_wobSeed87_DR3_A23C_o1 (dsDNA) DNA 1: GCCGAACTAGGTCATCCAGGACCGTGAATACATTGAGCGATTGACAGCGTAGAATGAAGG DNA 2: CCTTCATTCTACGCTGTCAATCGCTCAATGTATTCACGGTCCTGGATGACCTAGTTCGGC | 3.93 PBM z-score against 500 random probes
NRC3_wobSeed134_DR5_T23C_o1 (dsDNA) DNA 1: GCGCTGCTAGGTCAACTGATGGCCAGCTAAAGCTCGGCGATTGACAGCGTAGAATGAAGG DNA 2: CCTTCATTCTACGCTGTCAATCGCCGAGCTTTAGCTGGCCATCAGTTGACCTAGCAGCGC | 3.9 PBM z-score against 500 random probes
NRC3_wobSeed82_DR3_A18C_o1 (dsDNA) DNA 1: GCATCGAAAGGTCGACGCGGTGAGTATACACCGTTTGCGATTGACAGCGTAGAATGAAGG DNA 2: CCTTCATTCTACGCTGTCAATCGCAAACGGTGTATACTCACCGCGTCGACCTTTCGATGC | 3.87 PBM z-score against 500 random probes
NRC3_wobSeed88_DR3_G20C_o1 (dsDNA) DNA 1: GCTAGCCTAGGTCATGCGGCCCAGTATAGTGTCGGCGCGATTGACAGCGTAGAATGAAGG DNA 2: CCTTCATTCTACGCTGTCAATCGCGCCGACACTATACTGGGCCGCATGACCTAGGCTAGC | 3.84 PBM z-score against 500 random probes
NRC3_wobSeed46_DR1_A25C_o1 (dsDNA) DNA 1: GCTTACCAAGGTGAAAGGTCGTTGCTGCACGCCTTGGCGATTGACAGCGTAGAATGAAGG DNA 2: CCTTCATTCTACGCTGTCAATCGCCAAGGCGTGCAGCAACGACCTTTCACCTTGGTAAGC | 3.81 PBM z-score against 500 random probes
NRC3_wobSeed37_DR1_A14G_o1 (dsDNA) DNA 1: GCCGTCCAAGGTCGAAGGTCAGTGAAGAGATGACGGGCGATTGACAGCGTAGAATGAAGG DNA 2: CCTTCATTCTACGCTGTCAATCGCCCGTCATCTCTTCACTGACCTTCGACCTTGGACGGC | 3.76 PBM z-score against 500 random probes
